Measurements: patent US20040002450A1, “Y17 - isolated molecules comprising epitopes containing sulfated moieties, antibodies to such epitopes, and uses thereof” (priority 2000, published 2004)

Key:
[1] = test system: platelet-rich-plasma (PRP); assay: Ristocetin-induced aggregation of platelet-rich-plasma after scFv preincubation; format: cell-based, human; conditions: for % inhibition: ristocetin
Experimental: The effect of Y1 (scFv) on aggregation of platelet-rich-plasma (PRP) was tested at various concentrations of Y1. PRP was pre-incubated with Y1 scFv, Y17 scFv, or a control sTM-1cFv for 4 min at 37° C. before being exposed to ristocetin, an inducer of platelet agglutination and aggregation. A reversible inhibitory effect was observed when scFv was added to PRP prior to the addition of ristocetin, and it was dose dependent.
Blood was collected into a tube containing 3.8% sodium citrate. Platelet-rich plasma was prepared by centrifugation at 250×g for 10 minutes.
(§1) For platelet aggregation studies, platelet rich plasma (PRP) and washed platelets were stirred at 500 rpm at 37° C. in whole blood Lumiaggregometer (Chronolog, Havertown, Pa.). The difference in light transmission through the platelet suspension and suspending medium was taken as 100% aggregation. The effect of Y1 on platelet aggregation was evaluated by addition of different concentration of Y1 before the addition of agonist, and the effect was recorded for four minutes.

[2] = test system: platelets, KG-1, Raji and T2 cells; assay: FACS binding profile on platelets and human cell lines
[3] = target: T1, glycocalicin (Homo sapiens, UniProt P07359); assay: Western blot on natural versus E. coli recombinant glycocalicin; format: binding
T1 construct: GC, amino acid 1 to amino acid 493 of GPIbα; made in house; host or cells: E. coli BL21 (DE3), total cell lysate
Experimental: The DNA fragment encoding for glycocalicin (GC, amino acid 1 to amino acid 493 of GPIbα) was cloned into an IPTG inducible prokaryotic vector cassette. E. coli (BL21 DE3) cells harboring the newly constructed plasmid were grown at 37° C. to O.D. 0.7-0.8, than at 37° C. for 3 hours for in the presence of IPTG for induction
SDS-polyacrylamide gel loaded either with semi-purified human platelet derived glycocalicin (“GC”) or with E. coli cell lysates (“total”) derived from induced and non-induced cells were analyzed. Western blot analysis was performed with biotinylated Y1-scFv, polyclonal rabbit anti-human glycocalicin antibody, commercially available mouse anti-human CD42 monoclonal antibody (SZ2 Immunotech, PM640 Serotec, HIP 1 Pharmigen, AN51 DAKO), and polyclonal antibody against the N-terminus of GPIbα (Sc-7071, Santa Cruz).

[4] = test system: KG-1 cells; assay: FACS and binding competition on KG-1 cells (Y1 forms and multimers); design: species or system human; conditions: 5 μg and 10 μg
Text: To compare the binding of the scFv monomer (also referred to as CONY1) with the Y1 dimer, binding competition experiments were done in vitro on KG-1 cells. In addition, these experiments also compared the binding of the full Y1 IgG to the scFv Y1 monomers. To perform this study, a Y1 IgG was labeled with biotin.
In a preferred method, tetramers are formed via a biotin/streptavidin association. A novel fermentation construct that is capable of being enzymatically labeled with biotin (referred to herein as Y1-biotag or Y1-B) was created. A sequence that is a substrate for the BirA enzyme was added at the Y1C-terminus. The BirA enzyme adds a biotin to the lysine residue within the sequence. Y1-biotag was expressed in E. coli. The inclusion body material was isolated and refolded. The purity of the folded protein was >95%, and >100 mg were obtained from a 1-L culture (small-scale, non-optimized conditions). […] Nevertheless, this construct offered the advantage of specific biotinylation in which the binding site of the molecule remains intact. Further, each molecule is labeled by only one biotin—each molecule receives one biotin on the carboxyl end.
Limiting labeling to one biotin/molecule in a desired location enabled production of tetramers with streptavidin. The tetramers were formed by incubating Y1-B with steptavidin-PE. […]

[5] = test system: washed platelets; assay: Ristocetin-induced agglutination of washed platelets after scFv preincubation; format: cell-based, human; conditions: for % inhibition / % agglutination: washed platelets; for % inhibition: ristocetin; for % agglutination: ristocetin = 100%
Experimental: Aggregation is determined in PRP due to the presence of thrombotic agents, while agglutination is determined in washed platelets. The effect of Y1 (scFv) on agglutination of washed platelets was tested at various concentrations of Y1. Platelets were pre-incubated with Y1 scFv, Y17 scFv, Y16-scFv, or a control TM-1 scFv for 4 min at 37° C. before being exposed to ristocetin, an inducer of platelet agglutination and aggregation.
Platelet concentrate in acid-citrate-dextrose (ACD) was obtained from a blood bank, platelets were isolated, washed once in buffer containing ACD and saline in a ratio of 1:7. The platelets were centrifuged at 800 g for 10 min after each wash and were resuspended in Tyrodes solution (2 mM MgCl2, 137 mM NaCl, 2.68 mM KCl, 3 mM NaH2PO4, 0.1% glucose, 5 mM Hepes and 0.35% albumin, pH 7.35) and count the number of cells.
as §1
The effect of Y17-scFv on vWF-dependent agglutination of platelets was tested at different concentrations of Y17.

B1: Y1 scFv: fully human scFv clone binding platelets and myelogenous leukemia cells; SEQ ID NO: 25, heavy chain CDR3 SEQ ID NO: 8 (protein, listed as Homo sapiens)
scFv: MKYLLPTAAAGLLLLAAQPAMAEVQLVESGGGVVRPGGSLRLSCAASGFTFDDYGMSWVRQAPGKGLEWVSGINWNGGSTGYADSVKGRFTISRDNAKNSLYLQMNSLRAEDTAVYYCARMRAPVIWGQGTLVTVSRGGGGSGGGGSGGGGSSELTQDPAVSVALGQTVRITCQGDSLRSYYASWYQQKPGQAPVLVIYGKNNRPSGIPDRFSGSSSGNTASLTITGAQAEDEADYYCNSRDSSGNHVVFGGGTKLTVLGAAAEQKLISEEDLNGAA
- effect on ristocetin-induced platelet aggregation in PRP (in words) ([1]; 25 μg/ml): no significant inhibition
- % inhibition ([1]; scFv 25 μg/ml, PRP): 13%
- % aggregation ([1]; scFv 25 μg/ml, PRP, ristocetin = 100%): 87%
- % inhibition ([1]; scFv 50 μg/ml, PRP, first 4 minutes): 80%
- binding to Raji and T2 cells [2]: do not bind
- recognition of natural human platelet derived and bacterial recombinant glycocalicin [3]: recognized the natural human-derived glycocalicin, but did not recognize the bacterial derived recombinant platelet glycocalicin
- competition with Y1 IgG-Biotin (50 ng) [4]: partially competed
- effect on ristocetin-induced agglutination of washed platelets (in words) ([5]; 4 μg/ml): No inhibition
- effect on ristocetin-induced agglutination of washed platelets (in words) ([5]; 12.5 μg/ml): only partial inhibition
- effect on ristocetin-induced agglutination of washed platelets (in words) ([5]; 25 μg/ml): inhibited agglutination
- % inhibition ([5]; scFv 4 μg/ml): 8%
- % agglutination ([5]; scFv 4 μg/ml): 92%
- % inhibition ([5]; scFv 12.5 μg/ml): 33%
- % agglutination ([5]; scFv 12.5 μg/ml): 67%
- % inhibition ([5]; scFv 25 μg/ml): 77%
- % agglutination ([5]; scFv 25 μg/ml): 23%
